B1: PRPH (parent)
chain: RTFGPPPSLSPGAFSYSSSSRFSS

Variants of: B1
Assay: protein stability index of a GFP-peptide fusion (GPS, HEK-293T) (PSI 1-6); higher = more stable
Details: c terminus: a fixed tail appended
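Also: lentivirally expressed fusions sorted by FACS into six bins by GFP to DsRed ratio, PSI derived from sequencing read proportions per bin multiplied by bin number.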

Variant	protein stability index
RTFGPPPSLSPGAFTYSSSSRFSS	3.48
RTFGPPPSLSPGAFQYSSSSRFSS	3.18
RTFGPPPSLSPGAFGYSSSSRFSS	3.64
RTFGPPPSLSPGAFCYSSSSRFSS	2.33
RTFGPPPSLSPGAFLYSSSSRFSS	2.62
RTFGPPPSLSPGAFNYSSSSRFSS	3.37
RTFGPPPSLSPGAFAYSSSSRFSS	3.27
RTFGPPPSLSPGAFHYSSSSRFSS	2.85
RTFGPPPSLSPGAFWYSSSSRFSS	2.31
RTFGPPPSLSPGAFRYSSSSRFSS	2.33
RTFGPPPSLSPGAFEYSSSSRFSS	3.22
RTFGPPPSLSPGAFPYSSSSRFSS	3.03
RTFGPPPSLSPGAFDYSSSSRFSS	3.49
RTFGPPPSLSPGAFKYSSSSRFSS	3.29
RTFGPPPSLSPGAFIYSSSSRFSS	2.95
RTFGPPPSLSPGAFYYSSSSRFSS	2.56
RTFGPPPSLSPGAFVYSSSSRFSS	2.74
RTFGPPPSLSPGAFMYSSSSRFSS	2.65
RTFGPPPSLSPGAFFYSSSSRFSS	2.43
RTFGQPPSLSPGAFSYSSSSRFSS	2.6
RTFGDPPSLSPGAFSYSSSSRFSS	3.35
RTFGKPPSLSPGAFSYSSSSRFSS	2.99
RTFGEPPSLSPGAFSYSSSSRFSS	3.23
RTFGLPPSLSPGAFSYSSSSRFSS	2.07

Variant	protein stability index
RTFGCPPSLSPGAFSYSSSSRFSS	2.64
RTFGSPPSLSPGAFSYSSSSRFSS	2.99
RTFGVPPSLSPGAFSYSSSSRFSS	2.89
RTFGWPPSLSPGAFSYSSSSRFSS	2.21
RTFGYPPSLSPGAFSYSSSSRFSS	2.65
RTFGMPPSLSPGAFSYSSSSRFSS	2.6
RTFGNPPSLSPGAFSYSSSSRFSS	3.55
RTFGFPPSLSPGAFSYSSSSRFSS	2.61
RTFGIPPSLSPGAFSYSSSSRFSS	2.5
RTFGRPPSLSPGAFSYSSSSRFSS	2.71
RTFGTPPSLSPGAFSYSSSSRFSS	3.29
RTFGHPPSLSPGAFSYSSSSRFSS	2.81
RTFGGPPSLSPGAFSYSSSSRFSS	2.84
RTFGPYPSLSPGAFSYSSSSRFSS	2.11
RTFGPTPSLSPGAFSYSSSSRFSS	2.71
RTFGPHPSLSPGAFSYSSSSRFSS	2.79
RTFGPAPSLSPGAFSYSSSSRFSS	2.76
RTFGPCPSLSPGAFSYSSSSRFSS	2.09
RTFGPLPSLSPGAFSYSSSSRFSS	2.95
RTFGPWPSLSPGAFSYSSSSRFSS	2.01
RTFGPNPSLSPGAFSYSSSSRFSS	3.1
RTFGPKPSLSPGAFSYSSSSRFSS	3.25
RTFGPGPSLSPGAFSYSSSSRFSS	3.02
RTFGPIPSLSPGAFSYSSSSRFSS	2.9

Variant	protein stability index
RTFGPQPSLSPGAFSYSSSSRFSS	3.03
RTFGPFPSLSPGAFSYSSSSRFSS	2.15
RTFGPEPSLSPGAFSYSSSSRFSS	2.83
RTFGPDPSLSPGAFSYSSSSRFSS	2.86
RTFGPMPSLSPGAFSYSSSSRFSS	2.8
RTFGPRPSLSPGAFSYSSSSRFSS	3.02
RTFGPVPSLSPGAFSYSSSSRFSS	3.05
RTFGPSPSLSPGAFSYSSSSRFSS	3.37
RTFGPPPSLSPSAFSYSSSSRFSS	3.42
RTFGPPPSLSPFAFSYSSSSRFSS	2.16
RTFGPPPSLSPIAFSYSSSSRFSS	3.05
RTFGPPPSLSPYAFSYSSSSRFSS	2.93
RTFGPPPSLSPRAFSYSSSSRFSS	3.35
RTFGPPPSLSPWAFSYSSSSRFSS	2.25
RTFGPPPSLSPMAFSYSSSSRFSS	2.89
RTFGPPPSLSPCAFSYSSSSRFSS	1.96
RTFGPPPSLSPDAFSYSSSSRFSS	3.24
RTFGPPPSLSPKAFSYSSSSRFSS	3.21
RTFGPPPSLSPLAFSYSSSSRFSS	2.47
RTFGPPPSLSPTAFSYSSSSRFSS	3.31
RTFGPPPSLSPNAFSYSSSSRFSS	3.14
RTFGPPPSLSPVAFSYSSSSRFSS	3.36
RTFGPPPSLSPEAFSYSSSSRFSS	3.27
RTFGPPPSLSLGAFSYSSSSRFSS	2.59

Variant	protein stability index
RTFGPPPSLSTGAFSYSSSSRFSS	2.94
RTFGPPPSLSHGAFSYSSSSRFSS	2.74
RTFGPPPSLSGGAFSYSSSSRFSS	2.88
RTFGPPPSLSMGAFSYSSSSRFSS	2.52
RTFGPPPSLSSGAFSYSSSSRFSS	3.04
RTFGPPPSLSDGAFSYSSSSRFSS	3.45
RTFGPPPSLSQGAFSYSSSSRFSS	3.38
RTFGPPPSLSKGAFSYSSSSRFSS	2.44
RTFGPPPSLSVGAFSYSSSSRFSS	2.69
RTFGPPPSLSIGAFSYSSSSRFSS	2.46
RTFGPPPSLSFGAFSYSSSSRFSS	2.11
RTFGPPPSLSWGAFSYSSSSRFSS	2.23
RTFGPPPSLSAGAFSYSSSSRFSS	3.11
RTFGPPPSLSNGAFSYSSSSRFSS	3.12
RTFGPPPSLSEGAFSYSSSSRFSS	4
RTFGPPPSLSYGAFSYSSSSRFSS	2.41
RTFGPPPSLSCGAFSYSSSSRFSS	1.64
RTFGPPPSLSRGAFSYSSSSRFSS	3.63
RTFGPPYSLSPGAFSYSSSSRFSS	2.12
RTFGPPISLSPGAFSYSSSSRFSS	2.53
RTFGPPLSLSPGAFSYSSSSRFSS	2.71
RTFGPPMSLSPGAFSYSSSSRFSS	2.77
RTFGPPWSLSPGAFSYSSSSRFSS	2.08
RTFGPPRSLSPGAFSYSSSSRFSS	2.93

Variant	protein stability index
RTFGPPTSLSPGAFSYSSSSRFSS	3.56
RTFGPPNSLSPGAFSYSSSSRFSS	3.02
RTFGPPHSLSPGAFSYSSSSRFSS	3.15
RTFGPPCSLSPGAFSYSSSSRFSS	1.6
RTFGPPSSLSPGAFSYSSSSRFSS	3.26
RTFGPPVSLSPGAFSYSSSSRFSS	2.86
RTFGPPASLSPGAFSYSSSSRFSS	3.22
RTFGPPKSLSPGAFSYSSSSRFSS	3.71
RTFGPPESLSPGAFSYSSSSRFSS	2.89
RTFGPPGSLSPGAFSYSSSSRFSS	2.92
RTFGPPQSLSPGAFSYSSSSRFSS	3.13
RTFGPPFSLSPGAFSYSSSSRFSS	2.34
RTFGPPDSLSPGAFSYSSSSRFSS	3.45
RTFGPPPWLSPGAFSYSSSSRFSS	2.75
RTFGPPPILSPGAFSYSSSSRFSS	2.78
RTFGPPPELSPGAFSYSSSSRFSS	3.49
RTFGPPPLLSPGAFSYSSSSRFSS	3.14
RTFGPPPDLSPGAFSYSSSSRFSS	3.04
RTFGPPPRLSPGAFSYSSSSRFSS	3.83
RTFGPPPNLSPGAFSYSSSSRFSS	3.5
RTFGPPPGLSPGAFSYSSSSRFSS	2.68
RTFGPPPCLSPGAFSYSSSSRFSS	3.04
RTFGPPPVLSPGAFSYSSSSRFSS	2.59
RTFGPPPMLSPGAFSYSSSSRFSS	2.93

Variant	protein stability index
RTFGPPPKLSPGAFSYSSSSRFSS	2.58
RTFGPPPSLSPGACSYSSSSRFSS	3.09
RTFGPPPSLSPGAESYSSSSRFSS	4.21
RTFGPPPSLSPGAKSYSSSSRFSS	4.23
RTFGPPPSLSPGAISYSSSSRFSS	3.17
RTFGPPPSLSPGAWSYSSSSRFSS	3.22
RTFGPPPSLSPGAYSYSSSSRFSS	2.87
RTFGPPPSLSPGAGSYSSSSRFSS	3.3
RTFGPPPSLSPGAQSYSSSSRFSS	4.01
RTFGPPPSLSPGALSYSSSSRFSS	3.4
RTFGPPPSLSPGARSYSSSSRFSS	4.11
RTFGPPPSLSPGAASYSSSSRFSS	3.53
RTFGPPPSLSPGAMSYSSSSRFSS	3.28
RTFGPPPSLSPGAHSYSSSSRFSS	3.7
RTFGPPPSLSPGATSYSSSSRFSS	4.16
RTFGPPPSLSPGANSYSSSSRFSS	4.03
RTFGPPPSLSPGAVSYSSSSRFSS	3.52
RTFGPPPSLEPGAFSYSSSSRFSS	3.23
RTFGPPPSLVPGAFSYSSSSRFSS	2.78
RTFGPPPSLGPGAFSYSSSSRFSS	3.46
RTFGPPPSLCPGAFSYSSSSRFSS	3.45
RTFGPPPSLQPGAFSYSSSSRFSS	3.34
RTFGPPPSLYPGAFSYSSSSRFSS	2.36
RTFGPPPSLIPGAFSYSSSSRFSS	3.19

Variant	protein stability index
RTFGPPPSLHPGAFSYSSSSRFSS	3.13
RTFGPPPSLFPGAFSYSSSSRFSS	2.67
RTFGPPPSLLPGAFSYSSSSRFSS	3.24
RTFGPPPSLKPGAFSYSSSSRFSS	3.06
RTFGPPPSLNPGAFSYSSSSRFSS	3.15
RTFGPPPSLMPGAFSYSSSSRFSS	3.61
RTFGPPPSLWPGAFSYSSSSRFSS	2.9
RTFGPPPSLRPGAFSYSSSSRFSS	3.15
RTFGPPPSLDPGAFSYSSSSRFSS	2.76
RTFGPPPSQSPGAFSYSSSSRFSS	3.76
RTFGPPPSWSPGAFSYSSSSRFSS	3.09
RTFGPPPSDSPGAFSYSSSSRFSS	3.61
RTFGPPPSKSPGAFSYSSSSRFSS	3.8
RTFGPPPSGSPGAFSYSSSSRFSS	3.64
RTFGPPPSTSPGAFSYSSSSRFSS	3.7
RTFGPPPSESPGAFSYSSSSRFSS	3.44
RTFGPPPSHSPGAFSYSSSSRFSS	3.54
RTFGPPPSNSPGAFSYSSSSRFSS	3.42
RTFGPPPSVSPGAFSYSSSSRFSS	3.31
RTFGPPPSSSPGAFSYSSSSRFSS	3.8
RTFGPPPSCSPGAFSYSSSSRFSS	2.71
RTFGPPPSASPGAFSYSSSSRFSS	3.52
RTFGPPPSYSPGAFSYSSSSRFSS	2.94
RTFGPPPSFSPGAFSYSSSSRFSS	3.39

Variant	protein stability index
RTFGPPPSRSPGAFSYSSSSRFSS	4.05
RTFGPPPSLSPGTFSYSSSSRFSS	3.45
RTFGPPPSLSPGIFSYSSSSRFSS	3.33
RTFGPPPSLSPGGFSYSSSSRFSS	3.21
RTFGPPPSLSPGMFSYSSSSRFSS	3.29
RTFGPPPSLSPGEFSYSSSSRFSS	3.51
RTFGPPPSLSPGCFSYSSSSRFSS	2.86
RTFGPPPSLSPGKFSYSSSSRFSS	3.42
RTFGPPPSLSPGDFSYSSSSRFSS	3.5
RTFGPPPSLSPGPFSYSSSSRFSS	3.21
RTFGPPPSLSPGVFSYSSSSRFSS	2.94
RTFGPPPSLSPGSFSYSSSSRFSS	2.73
RTFGPPPSLSPGWFSYSSSSRFSS	2.79
RTFGPPPSLSPGLFSYSSSSRFSS	3.18
RTFGPPPSLSPGRFSYSSSSRFSS	3.01
RTFGPPPSLSPGNFSYSSSSRFSS	3.94
RTFGPPPSLSPGQFSYSSSSRFSS	3.62
RTFGPPPSLSPGFFSYSSSSRFSS	2.98
RTFGPPPSLSPGYFSYSSSSRFSS	3.14
RTFGPPPSLSPGHFSYSSSSRFSS	3.05

Source: the supplement of paper PMC10567573
